In the experiment the target is T1, human SEZ6 expressed on stably transfected CHO-K1 cells (human, UniProt Q53EL9 20-994).
T1 construct: also called CHO-SEZ6; hSEZ6
T1 sequence: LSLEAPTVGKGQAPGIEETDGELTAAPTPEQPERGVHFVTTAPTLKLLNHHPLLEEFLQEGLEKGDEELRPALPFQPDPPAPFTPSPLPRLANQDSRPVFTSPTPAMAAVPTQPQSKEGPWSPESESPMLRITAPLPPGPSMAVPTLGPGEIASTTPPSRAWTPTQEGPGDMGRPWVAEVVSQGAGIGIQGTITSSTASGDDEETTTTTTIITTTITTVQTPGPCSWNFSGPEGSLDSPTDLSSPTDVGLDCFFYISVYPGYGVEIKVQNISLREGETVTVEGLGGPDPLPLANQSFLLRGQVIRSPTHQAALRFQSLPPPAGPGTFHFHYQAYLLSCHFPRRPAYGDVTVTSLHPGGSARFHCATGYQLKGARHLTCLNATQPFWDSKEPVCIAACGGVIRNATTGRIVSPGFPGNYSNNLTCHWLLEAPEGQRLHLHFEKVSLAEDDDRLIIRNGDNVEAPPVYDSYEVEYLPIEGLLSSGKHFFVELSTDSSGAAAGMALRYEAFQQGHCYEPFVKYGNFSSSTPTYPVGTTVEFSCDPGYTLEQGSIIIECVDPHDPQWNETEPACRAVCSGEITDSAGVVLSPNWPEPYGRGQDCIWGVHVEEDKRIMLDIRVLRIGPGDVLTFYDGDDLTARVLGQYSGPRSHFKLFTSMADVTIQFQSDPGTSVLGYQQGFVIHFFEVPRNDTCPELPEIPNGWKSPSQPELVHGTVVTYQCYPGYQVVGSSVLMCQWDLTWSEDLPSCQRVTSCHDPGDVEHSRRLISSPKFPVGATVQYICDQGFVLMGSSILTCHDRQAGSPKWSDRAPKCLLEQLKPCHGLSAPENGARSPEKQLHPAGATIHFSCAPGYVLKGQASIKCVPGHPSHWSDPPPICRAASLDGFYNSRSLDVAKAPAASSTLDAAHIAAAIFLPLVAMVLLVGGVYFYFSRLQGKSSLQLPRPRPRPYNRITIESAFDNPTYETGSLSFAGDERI
Put plainly: flow cytometry on CHO-K1 cells expressing human SEZ6.

B1: cAb314 (Fc fusion)
VHH: HVQLVESGGGSVQAGGSLRLSCAVSGFTSSRGWMAWFRQAPGKEREGVAVIGRRSGDIYYADSLKGRFTISHDSTENTLYLQMNNLKPEDTATYYCAVGDQAGHVLTSSPYRYWGQGTQVTVSS
notes: VHH-hFc expressed in 293 cells; Parent of PR0071; also called chimeric nanobody; camel-derived SEZ6 chimeric antibody; not shown: The human Fc (hFc) of the VHH-hFc construct
Turning to B1, the EC50 amounted to 0.38 nM and the MFImax was 8480.

B2: cAb025 (Fc fusion)
VHH: EVQLVESGGGSVQPGGSLRLSCEASGLTYNKDCMAWFRQAPGKEREGVAIINGVGRTRYADSVKGRFTISKDNAKNTLYLQMNNLKPEDTAMYYCAAQRASSSCGSLSRAWYDYWGRGTQVTVSS
notes: VHH-hFc expressed in 293 cells; Parent of PR0069; also called chimeric nanobody; camel-derived SEZ6 chimeric antibody; not shown: The human Fc (hFc) of the VHH-hFc construct
In the case of B2, it took 0.23 nM to reach a half-maximal effect (EC50) and the MFImax turned out to be 6600.

The record behind these values is patent EP4714971A1 (Shanghai Hansoh Biomedical Co., Ltd., dated 2024).
